Measured values reported in patent publication US20140011209, “Aptamers for Prion Diagnostics and Aptamer Binding Detection System” (Aptrix Biosystems LLC, published 2014).

How the values were obtained:
[1] = biological target: RVV-X (Russell's viper venom factor X activator) (UniProt Q7LZ61;Q4PRD1;Q4PRD2 Q7LZ61:189-619,Q4PRD1:24-146,Q4PRD2:25-158); test: EMSA; conditions: tags: Haematologic Technologies; label: 32P end
[2] = biological target: T1, RVV-X (Russell's viper venom factor X activator) (UniProt Q7LZ61;Q4PRD1;Q4PRD2 Q7LZ61:189-619,Q4PRD1:24-146,Q4PRD2:25-158); test: EMSA; room temperature, 1 h; conditions: tags: Haematologic Technologies, label: 32P end
[3] = biological target: T1, RVV-X (Russell's viper venom factor X …); test: EMSA; scrambled SEQ 1, negative control; conditions: tags: Haematologic Technologies; label: 32P end
alpha-Thrombin = alpha-Thrombin (Homo sapiens, UniProt P00734;P00734 P00734:328-363,P00734:364-622); test: EMSA; conditions: tags: Haematologic Technologies; label: 32P end; two loops and two short stems
[4] = biological target: T1, RVV-X (Russell's viper venom factor X …); test: EMSA; prion binding component alone; conditions: tags: Haematologic Technologies; label: 32P end; two loops and two short stems
[5] = biological target: T1, RVV-X (Russell's viper venom factor X …); test: EMSA; conditions: tags: Haematologic Technologies; label: 32P end; three loops, two bulges, three stems

B1: SEQ ID NO. 1 (ssRNA)
RNA: UAGCGACAAGGCGACAAGCAAUGACACAUUAACAGACCCUGGUUAGUGAACGAA
[1]
  Kd: 30 nM

## AAAGCGACCGACCUUUGCCUAAACAGCUGAUGGUUUACAAAGGAA (ssRNA) [74, 5 from both]
[2]
  Kd: 426 nM

## AAAGCGACCGACCUUUGCCUAAACAGCUGAUGGUUUACAAAGGAAGCACG (ssRNA) [74, 5 from 5']
[2]
  Kd: 374 nM

## GACCGACCUUUGCCUAAACAGCUGAUGGUUUACAAAGGAAGCACG (ssRNA) [74, 10 from 5']
[2]; stem-loop with bulge
  Kd: 250 nM

B2: SEQ ID NO. 4 (ssRNA)
RNA: UGGCGACGAGGCGGCAGGCAAUGACACAUUAGCAGACCCUGGUUAAUGAGCGAA
[1]
  Kd: 158 nM

B3: Scrambled SEQ ID NO. 107 (ssRNA)
RNA: GGAGGCCAACUAAUAACGCCAGAACUAUAGGAAUCCCAUGAAGCGAGCGAGAAUU
[3]
  Kd: 131 nM

## UCCUCAAAGCGACCGACCUUUGCCUAAACAGCUGAUGGUUUACAAAGGAA (ssRNA) [74, 5 from 3']
[2]
  Kd: 352 nM

B4: 74 alone (ssRNA)
RNA: UCCUCAAAGCGACCGACCUUUGCCUAAACAGCUGAUGGUUUACAAAGGAAGCACG
[1]
  Kd: 75 nM

B5: SEQ ID NO. 6 (ssRNA)
RNA: UGGCGGAUACUCUGCGAAGGGCGAACCCAACAUUUCGCACAGGACCGACUACUGCA
[1]
  Kd: 19 nM

B6: B-end (PrPSc binding region) (ssRNA)
RNA: GGGAGACAAGACUAGACGCUCAACUACGAACUCAUGACACAAGGAUGCAAUCUCAUCCCG
alpha-Thrombin
  Kd: 4220 nM
[4]
  Kd: 170 nM

## UCCUCAAAGCGACCGACCUUUGCCUAAACAGCUGAUGGUUUACAA (ssRNA) [74, 10 from 3']
[2]
  Kd: 301 nM

B7: SEQ ID NO. 3 (ssRNA)
RNA: UCUUCCAACGACCAUGCGGCGACAAGCGACUACAAGAGGGUACCCACGGACAGCA
[1]
  Kd: 94.7 nM

B8: Fus74_10_5 (ssRNA)
RNA: GACCGGGGAGACAAGACUAGACGCUCAACUACGAACUCAUGACACAAGGAUGCAAUCUCAUCCCGACCUUUGCCUAAACAGCUGAUGGUUUACAAAGGAAGCACG
[5]
  Kd: 63.9 nM

B9: SEQ ID NO. 2 (ssRNA)
RNA: AAGGCGAGGUGCGACCCGCACGUGGCAUCUGAUAGCACAUGAAAAGGCACGUCA
[1]
  Kd: 23 nM
